Measurements published in US20250002588A1 (DIAGONAL THERAPEUTICS, published 2025).

Biological target: ALK-1/BMPR-2 receptor pair of the PathHunter U2Os dimerization cells (DiscoverX 93-0962C3) (UniProt P37023 22-503; Q13873 27-1038)
Assay: cell-based or functional assay

B1: DGL869 (bispecific antibody)
chain 1: not shown
chain 2: EVQLLESGGGLVQPGGSLRLSCAASGFTFSDYYMTWIRQAPGKGLEWVSSISGGSTYYADSRKGRFTISRDNSENTLYLQMNSLRAEDTAVYYCARDFGVAGWFGQYGMDVWGQGTLVTVSSGGGGSGGGGSGGGGSQSVLTQPPSASGTPGQRVTISCTGSSSNIGAGYDVHWYQQLPGTAPKLLIYRSNQRPSGVPDRFSGSKSGTSASLAISGLRSEDEADYYCSSYAGNYNLVFGGGTKLTVLDKTHTCPPCPAPEAAGAPSVFLFPPKPKDTLMISRTPEVTCVVVDVSHEDPEVKFNWYVDGVEVHNAKTKPREEQYNSTYRVVSVLTVLHQDWLNGKEYKCKVSNKALPAPIEKTISKAKGQPREPQVCTLPPSRDELTKNQVSLSCAVKGFYPSDIAVEWESNGQPENNYKTTPPVLDSDGSFFLVSKLTVDKSRWQQGNVFSCSVMHEALHNHYTQKSLSLSPGWSHPQFEK
For B1, the “% Emax BMP9” value was 56% and the “Emax (RLU)” value was 1.44e+06 RLU.

B2: DGL870 (bispecific antibody)
chain 1: not shown
chain 2: EVQLLESGGGLVQPGGSLRLSCAASGFTFSDYYMTWIRQAPGKGLEWVSSISGGSTYYADSRKGRFTISRDNSENTLYLQMNSLRAEDTAVYYCARDFGVAGWFGQYGMDVWGQGTLVTVSSGGGGSGGGGSGGGGSQSVLTQPPSASGTPGQRVTISCTGSSSNIGAGYDVHWYQQLPGTAPKLLIYRSNQRPSGVPDRFSGSKSGTSASLAISGLRSEDEADYYCSSYAGNYNLVFGGGTKLTVLDKTHTCPPCPAPEAAGAPSVFLFPPKPKDTLMISRTPEVTCVVVDVSHEDPEVKFNWYVDGVEVHNAKTKPREEQYNSTYRVVSVLTVLHQDWLNGKEYKCKVSNKALPAPIEKTISKAKGQPREPQVCTLPPSRDELTKNQVSLSCAVKGFYPSDIAVEWESNGQPENNYKTTPPVLDSDGSFFLVSKLTVDKSRWQQGNVFSCSVMHEALHNHYTQKSLSLSPGWSHPQFEK
For B2, the “% Emax BMP9” value was 56% and the “Emax (RLU)” value was 1.42e+06 RLU.

B3: DGL872 (bispecific antibody)
chain 1: not shown
chain 2: EVQLLESGGGLVQPGGSLRLSCAASGFTFSDYYMTWIRQAPGKGLEWVSSISGGSTYYADSRKGRFTISRDNSENTLYLQMNSLRAEDTAVYYCARDFGVAGWFGQYGMDVWGQGTLVTVSSGGGGSGGGGSGGGGSQSVLTQPPSASGTPGQRVTISCTGSSSNIGAGYDVHWYQQLPGTAPKLLIYRSNQRPSGVPDRFSGSKSGTSASLAISGLRSEDEADYYCSSYAGNYNLVFGGGTKLTVLDKTHTCPPCPAPEAAGAPSVFLFPPKPKDTLMISRTPEVTCVVVDVSHEDPEVKFNWYVDGVEVHNAKTKPREEQYNSTYRVVSVLTVLHQDWLNGKEYKCKVSNKALPAPIEKTISKAKGQPREPQVCTLPPSRDELTKNQVSLSCAVKGFYPSDIAVEWESNGQPENNYKTTPPVLDSDGSFFLVSKLTVDKSRWQQGNVFSCSVMHEALHNHYTQKSLSLSPGWSHPQFEK
B3 was tested, and the “% Emax BMP9” value was 57% and the “Emax (RLU)” value was 1.46e+06 RLU.

B4: DGL871 (bispecific antibody)
chain 1: not shown
chain 2: EVQLLESGGGLVQPGGSLRLSCAASGFTFSDYYMTWIRQAPGKGLEWVSSISGGSTYYADSRKGRFTISRDNSENTLYLQMNSLRAEDTAVYYCARDFGVAGWFGQYGMDVWGQGTLVTVSSGGGGSGGGGSGGGGSQSVLTQPPSASGTPGQRVTISCTGSSSNIGAGYDVHWYQQLPGTAPKLLIYRSNQRPSGVPDRFSGSKSGTSASLAISGLRSEDEADYYCSSYAGNYNLVFGGGTKLTVLDKTHTCPPCPAPEAAGAPSVFLFPPKPKDTLMISRTPEVTCVVVDVSHEDPEVKFNWYVDGVEVHNAKTKPREEQYNSTYRVVSVLTVLHQDWLNGKEYKCKVSNKALPAPIEKTISKAKGQPREPQVCTLPPSRDELTKNQVSLSCAVKGFYPSDIAVEWESNGQPENNYKTTPPVLDSDGSFFLVSKLTVDKSRWQQGNVFSCSVMHEALHNHYTQKSLSLSPGWSHPQFEK
With B4 the “% Emax BMP9” value was 62% and the “Emax (RLU)” value was 1.59e+06 RLU.
